The chains are these.
T1: EsCas13d, nuclease-dead (Eubacterium siraeum, UniProt B0MS50, R295A;H300A;R849A;H854A)
T1 sequence: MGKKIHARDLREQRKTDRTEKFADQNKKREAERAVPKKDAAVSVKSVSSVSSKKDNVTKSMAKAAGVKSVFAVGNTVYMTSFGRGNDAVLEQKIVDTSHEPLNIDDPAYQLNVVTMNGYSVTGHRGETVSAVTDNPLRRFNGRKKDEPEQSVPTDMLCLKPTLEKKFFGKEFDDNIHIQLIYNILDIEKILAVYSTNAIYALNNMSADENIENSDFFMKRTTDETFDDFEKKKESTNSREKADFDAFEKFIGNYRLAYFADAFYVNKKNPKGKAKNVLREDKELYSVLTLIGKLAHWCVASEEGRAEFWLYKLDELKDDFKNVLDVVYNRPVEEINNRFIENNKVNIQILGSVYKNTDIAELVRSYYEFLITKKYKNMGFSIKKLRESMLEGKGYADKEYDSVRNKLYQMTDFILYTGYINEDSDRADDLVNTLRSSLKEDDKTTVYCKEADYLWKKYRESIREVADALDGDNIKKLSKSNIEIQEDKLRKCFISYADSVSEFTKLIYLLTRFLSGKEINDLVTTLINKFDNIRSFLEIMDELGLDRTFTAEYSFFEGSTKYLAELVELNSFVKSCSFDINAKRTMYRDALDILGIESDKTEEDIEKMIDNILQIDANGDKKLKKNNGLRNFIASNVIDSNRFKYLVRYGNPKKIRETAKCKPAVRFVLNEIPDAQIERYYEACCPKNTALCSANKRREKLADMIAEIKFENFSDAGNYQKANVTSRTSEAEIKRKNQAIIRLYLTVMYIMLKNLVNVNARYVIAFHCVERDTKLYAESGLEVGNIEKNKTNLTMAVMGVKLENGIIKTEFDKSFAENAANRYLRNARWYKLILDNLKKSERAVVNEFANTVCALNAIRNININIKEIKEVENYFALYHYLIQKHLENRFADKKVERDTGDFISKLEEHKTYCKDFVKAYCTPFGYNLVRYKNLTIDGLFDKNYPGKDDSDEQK

B1: target 1 G15U,A16U (mixed)
RNA 1: CACCCGUGCAAAAAUGCAGGGGUCUAAAACUGAGCGGAUAACCUCUCUAUGG
RNA 2: GGGAAUGGAUCCACAUCUACGAAUUCGUACCAUAGUUAGGUUAUCCGCUCACCGAGAUCGGAAGAGCACACGU
B2: target 1 insC 3' of 20,insU 3' of 9 (mixed)
RNA 1: B1 RNA 1
RNA 2: GGGAAUGGAUCCACAUCUACGAAUUCGUACCACUAGAGAGGUUAUUCCGCUCACCGAGAUCGGAAGAGCACACGU
B3: target 1 A1C,U3C (mixed)
RNA 1: B1 RNA 1
RNA 2: B1 RNA 2 with U36A, U37G, U49C, A51C
B4: target 3 insA 3' of 8,insA 3' of 7 (mixed)
RNA 1: CACCCGUGCAAAAUUGCAGGGGUCUAAAACGACCUGAAUAUUUCAGAUCAAA
RNA 2: GGGAAUGGAUCCACAUCUACGAAUUCGUUUUUGAUCUGAAAUAUAUACAGGUCUGCAGAUCGGAAGAGCACACGU
B5: target 3 C1A,G4U (mixed)
RNA 1: B4 RNA 1
RNA 2: GGGAAUGGAUCCACAUCUACGAAUUCGUUUUUGAUCUGAAAUAUUCAUGUAUGCAGAUCGGAAGAGCACACGU
B6: target 3 insA 3' of 21,insG 3' of 6 (mixed)
RNA 1: B4 RNA 1
RNA 2: GGGAAUGGAUCCACAUCUACGAAUUCGUUUUAUGAUCUGAAAUAUUCGAGGUCUGCAGAUCGGAAGAGCACACGU
B7: target 3 C6U,U22G (mixed)
RNA 1: B4 RNA 1
RNA 2: B5 RNA 2 with U30G, C46U, U48G, A51C
B8: target 3 U20C (mixed)
RNA 1: B4 RNA 1
RNA 2: B5 RNA 2 with U32C, U48G, A51C
B9: target 3 del2,del22 (mixed)
RNA 1: B4 RNA 1
RNA 2: GGGAAUGGAUCCACAUCUACGAAUUCGUUUUGAUCUGAAAUAUUCAGGCUGCAGAUCGGAAGAGCACACGU
B10: target 3 insU 3' of 16,insA 3' of 4 (mixed)
RNA 1: B4 RNA 1
RNA 2: B6 RNA 2 with A32U, U33G, G34A, A35U, U36C, C37U, G48A, A49G, G50A
B11: target 3 A5G,U7C (mixed)
RNA 1: B4 RNA 1
RNA 2: B5 RNA 2 with U45C, A47G, U48G, A51C
B12: target 3 U2C,G4A (mixed)
RNA 1: B4 RNA 1
RNA 2: B5 RNA 2 with U48A, U50C, A51C
B13: target 3 G4C,C6U (mixed)
RNA 1: B4 RNA 1
RNA 2: B5 RNA 2 with C46U, U48C, A51C
B14: target 3 insC 3' of 4,insU 3' of 4 (mixed)
RNA 1: B4 RNA 1
RNA 2: B4 RNA 2 with A45U, U46C, C48G, A49C, G50U
B15: target 3 del2,del4 (mixed)
RNA 1: B4 RNA 1
RNA 2: GGGAAUGGAUCCACAUCUACGAAUUCGUUUUUGAUCUGAAAUAUUCAGCUGCAGAUCGGAAGAGCACACGU
B16: target 3 C1U,U8G (mixed)
RNA 1: B4 RNA 1
RNA 2: B5 RNA 2 with U44G, U48G, A51U
B17: target 3 del14,del17 (mixed)
RNA 1: B4 RNA 1
RNA 2: GGGAAUGGAUCCACAUCUACGAAUUCGUUUUUGACUAAAUAUUCAGGUCUGCAGAUCGGAAGAGCACACGU
B18: target 3 C1G,U2G (mixed)
RNA 1: B4 RNA 1
RNA 2: B5 RNA 2 with U48G, U50G, A51G
B19: target 3 insA 3' of 6,insU 3' of 6 (mixed)
RNA 1: B4 RNA 1
RNA 2: B4 RNA 2 with A45U, U46C, C48U
B20: target 3 C1G,G3A (mixed)
RNA 1: B4 RNA 1
RNA 2: B5 RNA 2 with U48G, G49A, A51G
B21: target 3 insA 3' of 22,insC 3' of 4 (mixed)
RNA 1: B4 RNA 1
RNA 2: B6 RNA 2 with U31A, A32U, G48A, A49G, G50C
B22: target 3 C1G,G4U (mixed)
RNA 1: B4 RNA 1
RNA 2: B5 RNA 2 with A51G
B23: target 3 insG 3' of 9,insA 3' of 3 (mixed)
RNA 1: B4 RNA 1
RNA 2: B4 RNA 2 with U44G, A45U, A47C, C48A, A49G, G51A
B24: target 3 U2G,U10A (mixed)
RNA 1: B4 RNA 1
RNA 2: B5 RNA 2 with U42A, U48G, U50G, A51C
B25: target 3 C1U,A5C (mixed)
RNA 1: B4 RNA 1
RNA 2: B5 RNA 2 with A47C, U48G, A51U
B26: target 3 C6U,U7C (mixed)
RNA 1: B4 RNA 1
RNA 2: B5 RNA 2 with U45C, C46U, U48G, A51C
B27: target 3 insC 3' of 22,insA 3' of 6 (mixed)
RNA 1: B4 RNA 1
RNA 2: B6 RNA 2 with U31C, A32U, G48A
B28: target 3 insA 3' of 6,insG 3' of 2 (mixed)
RNA 1: B4 RNA 1
RNA 2: B4 RNA 2 with A45U, U46C, C48A, A49G, G51U, U52G
B29: target 3 G4U,U22G (mixed)
RNA 1: B4 RNA 1
RNA 2: B5 RNA 2 with U30G, A51C
B30: target 3 G3C,U21G (mixed)
RNA 1: B4 RNA 1
RNA 2: B5 RNA 2 with U31G, U48G, G49C, A51C
B31: target 3 G3U,U8G (mixed)
RNA 1: B4 RNA 1
RNA 2: B5 RNA 2 with U44G, U48G, G49U, A51C

Residue numbers refer to the chain shown, from its start. Names and notes keep the numbering of the source.

In the data set the target is T1, EsCas13d, nuclease-dead. As to the kind of experiment: crRNA (strand 1, pre-loaded); Mg2+; 40 mM Tris-HCl pH 7.5, 150 mM NaCl, 6 mM MgCl2, 1 mM DTT, 0.1% Tween-20, 0.2 mg/ml BSA; 25 C; 10 min per concentration, then washed. The note with it: tags: His6-TwinStrep-SUMO cleaved; N-terminal SNAP kept (SNAP-Surface 488); label: 3' end held by stalled T7 RNA polymerase.
As usually defined, the Kd is the constant that tells how readily two partners part at equilibrium. High values mean lower affinity, low ones higher affinity. Molecule B1 registered a Kd of 15.6 ± 0.7 nM.

With B2, the affinity, expressed as Kd, was 8 ± 0.9 nM.

For the molecule B3, the Kd was 18 ± 4 nM.

In turn, B4 displayed a dissociation constant (Kd) of 44.5 ± 5.5 nM.

As for B5, the Kd was determined as 17.4 ± 4.35 nM.

Take B6: the Kd amounted to 48.5 ± 6.5 nM.

With B7, the equilibrium dissociation constant (Kd) was determined as 51.5 ± 6 nM.

Take B8: the dissociation constant (Kd) stood at 62.5 ± 18 nM.

The molecule B9 came in with a Kd of 5.25 ± 0.7 nM.

With B10, the dissociation constant Kd came to 90 ± 44.5 nM.

B11 had a dissociation constant (Kd) of 66.5 ± 11 nM.

With B12, the affinity, expressed as Kd, was 16.9 ± 2.45 nM.

Turning to B13, the Kd came to 20.2 ± 1.85 nM.

With B14, the affinity, expressed as Kd, was 25 ± 3.25 nM.

B15 had a Kd of 36.9 ± 5.2 nM.

Take B16: the Kd worked out at 64.5 ± 16.5 nM.

As for B17, the dissociation constant Kd came to 41 ± 7 nM.

Molecule B18 had a Kd of 12.8 ± 1.6 nM.

Consider B19, for which binding was characterised by a dissociation constant (Kd) of 5.3 ± 0.39 nM.

Turning to B20, binding was characterised by a dissociation constant (Kd) of 80 ± 40 nM.

B21: the equilibrium dissociation constant (Kd) worked out at 19.4 ± 4.55 nM.

The molecule B22 gave a Kd of 13.4 ± 1.65 nM.

B23 yielded an equilibrium dissociation constant (Kd) of 55.5 ± 12.5 nM.

B24 displayed a dissociation constant Kd of 63 ± 16 nM.

As to B25, binding was characterised by a dissociation constant (Kd) of 60.5 ± 9.5 nM.

The molecule B26 showed a Kd of 65.5 ± 15.5 nM.

In turn, B27 registered a Kd of 14.8 ± 1.95 nM.

B28 yielded a Kd of 4.05 ± 0.6 nM.

In turn, B29 showed a Kd of 37 ± 6 nM.

As to B30, binding was characterised by a dissociation constant (Kd) of 70.5 ± 24 nM.

With B31, the affinity, expressed as Kd, was 68 ± 10 nM.

These data come from paper PMC10786891, “Massively parallel profiling of RNA-targeting CRISPR-Cas13d”.
